How the values were obtained:
Assay in all cases: SPR (Biacore), antibody captured on chip, FcγR extracellular domain as analyte, kinetic analysis
[1] = target: T1, FcgRIIa R extracellular domain with C-terminal His tag (human, UniProt P12318 34-217)
T1 construct: extracellular domain; also called FcγRIIa R; FcγRIIa type R; not shown: His tag attached to the C terminus
T1 sequence (looked up): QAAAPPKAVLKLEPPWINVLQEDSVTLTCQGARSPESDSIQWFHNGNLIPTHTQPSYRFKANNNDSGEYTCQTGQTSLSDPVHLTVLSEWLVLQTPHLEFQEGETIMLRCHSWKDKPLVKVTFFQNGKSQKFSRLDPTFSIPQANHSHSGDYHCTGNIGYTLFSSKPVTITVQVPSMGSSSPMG
Procedure: (§1) Analysis of interaction between obj ective antibody and the FcγR was carried out using Biacore T100 (GE Healthcare), Biacore T200, Biacore A100, and Biacore 4000. HBS-EP+ (GE Healthcare) was used as the running buffer, and the measurement temperature was set to 25° C. Chips produced by immobilizing the antigen peptide by the amine coupling method to a Series S sensor Chip CM5 (GE Healthcare), chips produced by allowing preliminarily biotinylated antigen peptides to interact with and immobilize onto a Series S Sensor Chip SA (certified) (GE Healthcare), chips produced by immobilizing Protein L (ACTIGEN, BioVision) to Series S Sencor Chip CM5 (GE Healthcare), or chips produced by immobilizing Protein A/G (Thermo Scientific) to Series S Sencor Chip CM5 (GE Healthcare) were used. Antibodies of interest were captured onto these chips, and allowed to interact to each FcγR diluted with running buffer. To regenerate and repeatedly use the chip, the antibodies captured onto the chip were washed off by reacting 10 mM glycine-HCl, pH 1.5.

[2] = target: T2, FcgRIIa H extracellular domain with C-terminal His tag (human, UniProt P12318 34-217)
T2 construct: extracellular domain; also called FcγRIIa H; FcγRIIa type H; not shown: His tag attached to the C terminus
T2 sequence (looked up): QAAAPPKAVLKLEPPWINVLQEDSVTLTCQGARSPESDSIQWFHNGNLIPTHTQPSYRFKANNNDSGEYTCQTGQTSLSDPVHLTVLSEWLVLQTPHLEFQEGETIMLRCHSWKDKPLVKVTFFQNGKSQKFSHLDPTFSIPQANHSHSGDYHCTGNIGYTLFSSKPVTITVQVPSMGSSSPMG
Procedure: as §1

[3] = target: T3, FcgRIIb extracellular domain with C-terminal His tag (human, UniProt P31994 43-217)
T3 construct: extracellular domain; also called FcγRIIb; not shown: His tag attached to the C terminus
T3 sequence (looked up): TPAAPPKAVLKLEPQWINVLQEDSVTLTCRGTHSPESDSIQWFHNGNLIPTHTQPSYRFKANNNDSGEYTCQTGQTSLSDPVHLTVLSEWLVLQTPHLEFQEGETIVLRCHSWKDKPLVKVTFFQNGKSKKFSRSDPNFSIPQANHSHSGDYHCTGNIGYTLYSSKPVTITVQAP
Procedure: as §1

[4] = target: T4, FcgRIIIa F extracellular domain with C-terminal His tag (human, UniProt P08637 17-208)
T4 construct: extracellular domain; also called FcγRIIIa F; FcγRIIIa (F158); not shown: His tag attached to the C terminus
T4 sequence (P08637 17-208): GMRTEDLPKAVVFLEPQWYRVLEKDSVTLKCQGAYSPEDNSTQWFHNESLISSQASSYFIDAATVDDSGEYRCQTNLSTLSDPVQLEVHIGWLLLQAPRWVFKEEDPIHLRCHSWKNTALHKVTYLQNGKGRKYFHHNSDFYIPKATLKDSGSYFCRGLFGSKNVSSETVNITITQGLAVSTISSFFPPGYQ
Procedure: as §1

[5] = target: T5, FcgRIa extracellular domain with C-terminal His tag (human, UniProt P12314 16-292)
T5 construct: extracellular domain; Expressed in FreeStyle293 cells; used as analyte in Biacore; also called FcγRIa; FcγRI; not shown: His tag attached to the C terminus
T5 sequence (P12314 16-292): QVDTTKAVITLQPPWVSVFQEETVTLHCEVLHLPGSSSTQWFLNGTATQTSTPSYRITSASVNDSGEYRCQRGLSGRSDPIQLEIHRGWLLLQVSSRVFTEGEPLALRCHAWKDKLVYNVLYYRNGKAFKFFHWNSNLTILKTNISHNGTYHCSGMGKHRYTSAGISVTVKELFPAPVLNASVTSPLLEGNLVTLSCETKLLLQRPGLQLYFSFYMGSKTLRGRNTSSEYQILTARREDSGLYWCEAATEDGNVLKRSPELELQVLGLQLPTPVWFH
Procedure: as §1

[6] = target: T6, FcgRIIIa V extracellular domain with C-terminal His tag (human, UniProt P08637 17-208)
T6 construct: extracellular domain; also called FcγRIIIa V; FcγRIIIa (V158); not shown: His tag attached to the C terminus
T6 sequence (P08637 17-208 F176V): as the sequence (P08637 17-208) above, with F160V counted along it
Procedure: as §1

Row | Binder | Kd [1] [nM] | Kd [2] [nM] | Kd [3] [nM] | Kd [4] [nM] | Kd [5] [nM] | Kd [6] [nM]
1 | H240-afucosyl_G1d/L73-k0 (antibody, human IgG1, kappa, fucose removed from the sugar chain (afucosylated), also called afucosylated antibody) heavy: not shown light: DIQMTQSPSSLSASVGDRVTITCRASQDIHKYIAWYQQKPGQAPRLLIQYTSTLQPGVPSRFSGSGSGTDYTFTISSLQPEDIATYYCLQYEQLRTFGGGTKVEIKRTVAAPSVFIFPPSDEQLKSGTASVVCLLNNFYPREAKVQWKVDNALQSGNSQESVTEQDSKDSTYSLSSTLTLSKADYEKHKVYACEVTHQGLSSPVTKSFNRGEC | 490 | 780 | 2600 | 78 | 0.43 | 6.9
2 | H240-Kn033/H240-Hl033/L73-k0 (antibody, human IgG1, kappa, Knobs-into-holes only (control)) heavy 1: not shown heavy 2: not shown light: DIQMTQSPSSLSASVGDRVTITCRASQDIHKYIAWYQQKPGQAPRLLIQYTSTLQPGVPSRFSGSGSGTDYTFTISSLQPEDIATYYCLQYEQLRTFGGGTKVEIKRTVAAPSVFIFPPSDEQLKSGTASVVCLLNNFYPREAKVQWKVDNALQSGNSQESVTEQDSKDSTYSLSSTLTLSKADYEKHKVYACEVTHQGLSSPVTKSFNRGEC | 1000 | 930 | 4100 | 2600 | 0.25 | 390
3 | H240-Kn032/H240-Hl032/L73-k0 (antibody, human IgG1, kappa, S239D/A330L/I332E in both H chains (called homodimerized)) heavy 1: QDQLVQSGAEVKKPGASVKVSCKASGFNIKDTYIQWVRQAPGQGLEWMGRIDPLRKQTKYREKFEGRVTITADTSTNTAYMELSSLRSEDTAVYYCVRSGREFDYWGQGTLVTVSSASTKGPSVFPLAPSSKSTSGGTAALGCLVKDYFPEPVTVSWNSGALTSGVHTFPAVLQSSGLYSLSSVVTVPSSSLGTQTYICNVNHKPSNTKVDKKVEPKSCDKTHTCPPCPAPELLGGPDVFLFPPKPKDTLMISRTPEVTCVVVDVSHEDPEVKFNWYVDGVEVHNAKTKPREEQYNSTYRVVSVLTVLHQDWLNGKEYKCKVSNKALPLPEEKTISKAKGQPREPQVCTLPPSRDELTKNQVSLWCLVKGFYPSDIAVEWESNGQPENNYKTTPPVLDSDGSFFLYSKLTVDKSRWQQGNVFSCSVMHEALHNHYTQKSLSLSP heavy 2: QDQLVQSGAEVKKPGASVKVSCKASGFNIKDTYIQWVRQAPGQGLEWMGRIDPLRKQTKYREKFEGRVTITADTSTNTAYMELSSLRSEDTAVYYCVRSGREFDYWGQGTLVTVSSASTKGPSVFPLAPSSKSTSGGTAALGCLVKDYFPEPVTVSWNSGALTSGVHTFPAVLQSSGLYSLSSVVTVPSSSLGTQTYICNVNHKPSNTKVDKKVEPKSCDKTHTCPPCPAPELLGGPDVFLFPPKPKDTLMISRTPEVTCVVVDVSHEDPEVKFNWYVDGVEVHNAKTKPREEQYNSTYRVVSVLTVLHQDWLNGKEYKCKVSNKALPLPEEKTISKAKGQPREPQVYTLPPSRCELTKNQVSLSCAVKGFYPSDIAVEWESNGQPENNYKTTPPVLDSDGSFFLVSKLTVDKSRWQQGNVFSCSVMHEALHNHYTQKSLSLSP light: DIQMTQSPSSLSASVGDRVTITCRASQDIHKYIAWYQQKPGQAPRLLIQYTSTLQPGVPSRFSGSGSGTDYTFTISSLQPEDIATYYCLQYEQLRTFGGGTKVEIKRTVAAPSVFIFPPSDEQLKSGTASVVCLLNNFYPREAKVQWKVDNALQSGNSQESVTEQDSKDSTYSLSSTLTLSKADYEKHKVYACEVTHQGLSSPVTKSFNRGEC | 340 | 690 | 620 | 9.1 | 0.073 | 3.1
